B1: truncated Bpa variant lacking the flexible N- and C-terminal segments (Bpa36-139) (domain or fragment)
chain: SLTDLVEQPAKVMRIGTMIKQLLEEVRAAPLDEASRNRLRDIHATSIRELEDGLAPELREELDRLTLPFNEDAVPSDAELRIAQAQLVGWLEGLFHGIQTALFA
notes: Dodecameric ring; also called substrate-captured Bpa; copies: 12
B2: bacterial proteasome activator Bpa, full-length, wild-type (natural protein)
chain: MVIGLSTGSDDDDVEVIGGVDPRLIAVQENDSDESSLTDLVEQPAKVMRIGTMIKQLLEEVRAAPLDEASRNRLRDIHATSIRELEDGLAPELREELDRLTLPFNEDAVPSDAELRIAQAQLVGWLEGLFHGIQTALFAQQMAARAQLQQMRQGALPPGVGKSGQHGHGTGQYL
notes: also called wild-type Bpa ring; Bpa12; copies: 12

Legend:
[1] = target: the molecule itself; test: negative stain EM
[2] = target: the molecule itself; test: cross-linking + SEC
[3] = target: T1, 20S CP α-subunit (M. tuberculosis H37Rv, UniProt P9WHU1 1-248); test: cryo-EM structure; settings: both partners purified
T1 construct: also called proteasomal α-subunits; α-ring
T1 sequence (P9WHU1 whole entry): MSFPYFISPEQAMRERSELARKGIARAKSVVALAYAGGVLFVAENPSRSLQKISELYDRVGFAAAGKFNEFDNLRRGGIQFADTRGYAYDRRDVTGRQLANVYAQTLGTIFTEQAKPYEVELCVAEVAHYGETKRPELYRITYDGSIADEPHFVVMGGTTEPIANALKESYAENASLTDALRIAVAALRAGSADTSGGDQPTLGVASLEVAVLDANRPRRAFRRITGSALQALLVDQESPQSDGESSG

| Binder | stoichiometry N [1] | stoichiometry N [2] | binding result [3] |
| --- | --- | --- | --- |
| B1 | 24 | 12 |  |
| B2 |  |  | binds |

— paper PMC11953334, “Substrates bind to residues lining the ring of asymmetrically engaged bacterial proteasome activator Bpa” (Nature Communications, 2025)
